One data set deals with T1, D. dadantii 2SL (Dd) (Dickeya dadantii, UniProt E0SKP1).
T1 construct: gene Dda3937_00284; full-length, N-terminal hexahistidine tag (pET28b), expressed in E. coli BL21-(DE3)-RIPL, Ni-NTA purified; tag removal not mentioned
T1 sequence (E0SKP1 1-454): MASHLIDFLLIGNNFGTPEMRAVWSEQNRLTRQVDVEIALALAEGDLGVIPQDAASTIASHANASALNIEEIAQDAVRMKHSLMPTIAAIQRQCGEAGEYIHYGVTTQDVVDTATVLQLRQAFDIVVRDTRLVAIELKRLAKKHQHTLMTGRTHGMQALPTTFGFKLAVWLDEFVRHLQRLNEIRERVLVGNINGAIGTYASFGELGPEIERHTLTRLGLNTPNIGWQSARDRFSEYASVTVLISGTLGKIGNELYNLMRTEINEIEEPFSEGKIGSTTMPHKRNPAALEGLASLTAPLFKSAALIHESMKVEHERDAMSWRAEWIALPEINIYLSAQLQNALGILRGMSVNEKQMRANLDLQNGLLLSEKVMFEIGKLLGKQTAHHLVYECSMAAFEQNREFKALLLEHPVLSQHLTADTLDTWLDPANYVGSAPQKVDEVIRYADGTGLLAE
Nature of the data set: HPLC, […] nm, 2SNAC synthesis. Particulars: 50 mM Tris-HCl pH 8.0, 21 °C, 4.0 mM NAC; synthesis direction; read-out: Kinetic parameter / Km. Format: biochemical.

For a further data set, the target named is T2, E. italicus 2SL (Ei) (Enterococcus italicus, UniProt E6LDH5).
T2 construct: gene purB; full-length, N-terminal hexahistidine tag (pET28b), expressed in E. coli BL21-(DE3)-RIPL, Ni-NTA purified; tag removal not mentioned
T2 sequence (E6LDH5 1-455): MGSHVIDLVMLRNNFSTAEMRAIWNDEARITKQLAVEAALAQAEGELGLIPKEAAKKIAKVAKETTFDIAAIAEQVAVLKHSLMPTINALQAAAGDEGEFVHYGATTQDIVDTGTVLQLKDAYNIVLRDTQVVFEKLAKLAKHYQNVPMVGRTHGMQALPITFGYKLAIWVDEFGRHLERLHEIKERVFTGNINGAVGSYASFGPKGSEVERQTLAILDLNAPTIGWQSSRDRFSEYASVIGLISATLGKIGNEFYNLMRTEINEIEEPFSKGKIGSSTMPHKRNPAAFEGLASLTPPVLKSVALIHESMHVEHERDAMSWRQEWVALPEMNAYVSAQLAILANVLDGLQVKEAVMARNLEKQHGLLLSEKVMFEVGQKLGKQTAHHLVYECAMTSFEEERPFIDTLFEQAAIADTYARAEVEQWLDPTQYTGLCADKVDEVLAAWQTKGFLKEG
Kind of data set: HPLC, […] nm, 2SNAC synthesis. Format: biochemical. Particulars: 50 mM Tris-HCl pH 8.0, 21 °C, 4.0 mM NAC; synthesis direction; read-out: Kinetic parameter / Km.

Substrate in data set [1]: N[C@@H](CSC(CC(=O)O)C(=O)O)C(=O)O
Kind of data set: purified protein. As to conditions: 100 mM Tris-HCl pH 8.0, 21 °C, 40 mM glutamate, 2 mM NAD+, breakdown direction. Format: biochemical, Dickeya dadantii.

Substrate in data set [2]: N[C@@H](CS)C(=O)O
Nature of the data set: purified protein. Format: biochemical, Dickeya dadantii. Particulars: 50 mM Tris-HCl pH 8.0, 21 °C, 30 mM fumarate, synthesis direction.

Substrate in data set [3]: CC(=O)N[C@@H](CSC(CC(=O)O)C(=O)O)C(=O)O
Nature of the data set: purified protein. Format: biochemical, Dickeya dadantii. Particulars: 100 mM Tris-HCl pH 8.0, 21 °C, 40 mM glutamate, 2 mM NAD+, breakdown direction.

Substrate in data set [4]: CC(=O)N[C@@H](CS)C(=O)O
Nature of the data set: purified protein. Format: biochemical, Dickeya dadantii. As to conditions: 50 mM Tris-HCl pH 8.0, 21 °C, 30 mM fumarate, synthesis direction.

Substrate in data set [5]: N[C@@H](CSC(CC(=O)O)C(=O)O)C(=O)O
Kind of data set: purified protein. Format: biochemical, Enterococcus italicus. As to conditions: 100 mM Tris-HCl pH 8.0, 21 °C, 40 mM glutamate, 2 mM NAD+, breakdown direction.

Substrate in data set [6]: N[C@@H](CS)C(=O)O
Kind of data set: purified protein. Format: biochemical, Enterococcus italicus. As to conditions: 50 mM Tris-HCl pH 8.0, 21 °C, 30 mM fumarate, synthesis direction.

Substrate in data set [7]: CC(=O)N[C@@H](CSC(CC(=O)O)C(=O)O)C(=O)O
Kind of data set: purified protein. Format: biochemical, Enterococcus italicus. Particulars: 100 mM Tris-HCl pH 8.0, 21 °C, 40 mM glutamate, 2 mM NAD+, breakdown direction.

Substrate in data set [8]: CC(=O)N[C@@H](CS)C(=O)O
Nature of the data set: purified protein. Format: biochemical, Enterococcus italicus. As to conditions: 50 mM Tris-HCl pH 8.0, 21 °C, 30 mM fumarate, synthesis direction.

By Vmax is commonly meant the rate approached at saturating substrate. The kcat is the maximal rate divided by the concentration of active sites. The term kcat/Km denotes the second-order rate constant that governs catalysis at low substrate concentration.

`O=C(O)/C=C/C(=O)O` [fumarate]: the values for the Km at D. dadantii 2SL (Dd) and on E. italicus 2SL (Ei) were 3240 ± 300 µM and 230 ± 20 µM, respectively.

B1: D. dadantii 2SL (Dd) (Dickeya dadantii 3937) (protein)
chain: MASHLIDFLLIGNNFGTPEMRAVWSEQNRLTRQVDVEIALALAEGDLGVIPQDAASTIASHANASALNIEEIAQDAVRMKHSLMPTIAAIQRQCGEAGEYIHYGVTTQDVVDTATVLQLRQAFDIVVRDTRLVAIELKRLAKKHQHTLMTGRTHGMQALPTTFGFKLAVWLDEFVRHLQRLNEIRERVLVGNINGAIGTYASFGELGPEIERHTLTRLGLNTPNIGWQSARDRFSEYASVTVLISGTLGKIGNELYNLMRTEINEIEEPFSEGKIGSTTMPHKRNPAALEGLASLTAPLFKSAALIHESMKVEHERDAMSWRAEWIALPEINIYLSAQLQNALGILRGMSVNEKQMRANLDLQNGLLLSEKVMFEIGKLLGKQTAHHLVYECSMAAFEQNREFKALLLEHPVLSQHLTADTLDTWLDPANYVGSAPQKVDEVIRYADGTGLLAE
notes: full-length, N-terminal hexahistidine tag (pET28b), expressed in E. coli BL21-(DE3)-RIPL, Ni-NTA purified; tag removal not mentioned
On to B1, for which, in the data set “purified protein [1]”, the Km worked out at 12300 ± 1100 µM, the Vmax amounted to 0.069 µmol/min/mg, the turnover number (kcat) was determined as 0.06 ± 0.004 s⁻¹ and the kcat/Km amounted to 4.9 M⁻¹ s⁻¹. Also, in the data set “purified protein [2]”, the Km amounted to 19000 ± 1900 µM, the maximum rate (Vmax) is 11.1 µmol/min/mg, the kcat was 9.7 ± 0.4 s⁻¹ and the kcat/Km turned out to be 510 M⁻¹ s⁻¹. Moreover, in “purified protein [3]”, the Km is 1200 ± 220 µM, the Vmax was 0.4 µmol/min/mg, the catalytic constant (kcat) amounted to 0.35 ± 0.05 s⁻¹ and the kcat/Km was determined as 290 M⁻¹ s⁻¹. Also, in “purified protein [4]”, the Km was determined as 690 ± 50 µM, the maximal velocity (Vmax) came out at 27.6 µmol/min/mg, the kcat came to 24.2 ± 3.7 s⁻¹ and the kcat/Km is 35000 M⁻¹ s⁻¹.

B2: E. italicus 2SL (Ei) (Enterococcus italicus DSM 15952) (protein)
chain: MGSHVIDLVMLRNNFSTAEMRAIWNDEARITKQLAVEAALAQAEGELGLIPKEAAKKIAKVAKETTFDIAAIAEQVAVLKHSLMPTINALQAAAGDEGEFVHYGATTQDIVDTGTVLQLKDAYNIVLRDTQVVFEKLAKLAKHYQNVPMVGRTHGMQALPITFGYKLAIWVDEFGRHLERLHEIKERVFTGNINGAVGSYASFGPKGSEVERQTLAILDLNAPTIGWQSSRDRFSEYASVIGLISATLGKIGNEFYNLMRTEINEIEEPFSKGKIGSSTMPHKRNPAAFEGLASLTPPVLKSVALIHESMHVEHERDAMSWRQEWVALPEMNAYVSAQLAILANVLDGLQVKEAVMARNLEKQHGLLLSEKVMFEVGQKLGKQTAHHLVYECAMTSFEEERPFIDTLFEQAAIADTYARAEVEQWLDPTQYTGLCADKVDEVLAAWQTKGFLKEG
notes: as for B1
For B2, in “purified protein [5]”, the Km was determined as 10700 ± 2300 µM, the maximal velocity (Vmax) stood at 0.058 µmol/min/mg, the kcat turned out to be 0.051 ± 0.004 s⁻¹ and the specificity constant (kcat/Km) came to 4.7 M⁻¹ s⁻¹. For the same molecule, in the data set “purified protein [6]”, the Km came out at 17800 ± 3600 µM, the Vmax amounted to 11.9 µmol/min/mg, the kcat worked out at 10.4 ± 1.5 s⁻¹ and the specificity constant (kcat/Km) was found to be 580 M⁻¹ s⁻¹. In “purified protein [7]”, the Km turned out to be 1400 ± 100 µM, the Vmax was determined as 2.42 µmol/min/mg, the turnover number (kcat) is 2.12 ± 0.21 s⁻¹ and the kcat/Km came to 1510 M⁻¹ s⁻¹. In the data set “purified protein [8]”, the Km came out at 390 ± 30 µM, the Vmax amounted to 105 µmol/min/mg, the kcat was 92.1 ± 7.1 s⁻¹ and the kcat/Km is 236000 M⁻¹ s⁻¹.

These data come from article PMC9706529, “Identification of a S-(2-succino)cysteine breakdown pathway that uses a novel S-(2-succino) lyase” (The Journal of Biological Chemistry, 2022).
